# “Also recorded” adds a separate entry of the source.
# B1: R49A_L76P variant TEV protease (triple variant further comprising R49A and L76P), expressed in vivo (protein)
# chain: GESLFKGPRDYNPISSTICHLTNESDGHTTSLYGIGFGPFIITNKHLFARNNGTLVVQSLHGVFKVKNTTTLQQHPIDGRDMIIIRMPKDFPPFPQKLKFREPQREERICLVTTNFQTKSMSSMVSDTSCTFPSGDGIFWKHWIQTKDGQCGSPLVSTRDGFIVGIHSASNFTNTNNYFTSVPKNFMELLTNQEAQQWVSGWRLNADSVLWGGHKVFMVKPEEPFQPVKEATQLMNE
# B2: R49G_L76P variant TEV protease (triple variant further comprising R49G and L76P), expressed in vivo (protein)
# chain: GESLFKGPRDYNPISSTICHLTNESDGHTTSLYGIGFGPFIITNKHLFGRNNGTLVVQSLHGVFKVKNTTTLQQHPIDGRDMIIIRMPKDFPPFPQKLKFREPQREERICLVTTNFQTKSMSSMVSDTSCTFPSGDGIFWKHWIQTKDGQCGSPLVSTRDGFIVGIHSASNFTNTNNYFTSVPKNFMELLTNQEAQQWVSGWRLNADSVLWGGHKVFMVKPEEPFQPVKEATQLMNE
# B3: R49I_L76P variant TEV protease (triple variant further comprising R49I and L76P), expressed in vivo (protein)
# chain: GESLFKGPRDYNPISSTICHLTNESDGHTTSLYGIGFGPFIITNKHLFIRNNGTLVVQSLHGVFKVKNTTTLQQHPIDGRDMIIIRMPKDFPPFPQKLKFREPQREERICLVTTNFQTKSMSSMVSDTSCTFPSGDGIFWKHWIQTKDGQCGSPLVSTRDGFIVGIHSASNFTNTNNYFTSVPKNFMELLTNQEAQQWVSGWRLNADSVLWGGHKVFMVKPEEPFQPVKEATQLMNE
# B4: R49L_L76P variant TEV protease (triple variant further comprising R49L and L76P), expressed in vivo (protein)
# chain: GESLFKGPRDYNPISSTICHLTNESDGHTTSLYGIGFGPFIITNKHLFLRNNGTLVVQSLHGVFKVKNTTTLQQHPIDGRDMIIIRMPKDFPPFPQKLKFREPQREERICLVTTNFQTKSMSSMVSDTSCTFPSGDGIFWKHWIQTKDGQCGSPLVSTRDGFIVGIHSASNFTNTNNYFTSVPKNFMELLTNQEAQQWVSGWRLNADSVLWGGHKVFMVKPEEPFQPVKEATQLMNE
# B5: R49V variant TEV protease (N-terminal His tag; R49V, L56V, S135G, S219V) (protein)
# chain: GHHHHHHHGESLFKGPRDYNPISSTICHLTNESDGHTTSLYGIGFGPFIITNKHLFVRNNGTLVVQSLHGVFKVKNTTTLQQHLIDGRDMIIIRMPKDFPPFPQKLKFREPQREERICLVTTNFQTKSMSSMVSDTSCTFPSGDGIFWKHWIQTKDGQCGSPLVSTRDGFIVGIHSASNFTNTNNYFTSVPKNFMELLTNQEAQQWVSGWRLNADSVLWGGHKVFMVKPEEPFQPVKEATQLMNE
# B6: control TEV protease (TEV protease triple variant L56V, S135G, S219V with N-terminal His tag) (protein)
# chain: GHHHHHHHGESLFKGPRDYNPISSTICHLTNESDGHTTSLYGIGFGPFIITNKHLFRRNNGTLVVQSLHGVFKVKNTTTLQQHLIDGRDMIIIRMPKDFPPFPQKLKFREPQREERICLVTTNFQTKSMSSMVSDTSCTFPSGDGIFWKHWIQTKDGQCGSPLVSTRDGFIVGIHSASNFTNTNNYFTSVPKNFMELLTNQEAQQWVSGWRLNADSVLWGGHKVFMVKPEEPFQPVKEATQLMNE
# B7: L76P variant TEV protease (N-terminal His tag; L56V, L76P, S135G, S219V) (protein)
# chain: GHHHHHHHGESLFKGPRDYNPISSTICHLTNESDGHTTSLYGIGFGPFIITNKHLFRRNNGTLVVQSLHGVFKVKNTTTLQQHPIDGRDMIIIRMPKDFPPFPQKLKFREPQREERICLVTTNFQTKSMSSMVSDTSCTFPSGDGIFWKHWIQTKDGQCGSPLVSTRDGFIVGIHSASNFTNTNNYFTSVPKNFMELLTNQEAQQWVSGWRLNADSVLWGGHKVFMVKPEEPFQPVKEATQLMNE
# B8: R49F_L76P variant TEV protease (N-terminal His tag; R49F, L56V, L76P, S135G, S219V) (protein)
# chain: GHHHHHHHGESLFKGPRDYNPISSTICHLTNESDGHTTSLYGIGFGPFIITNKHLFFRNNGTLVVQSLHGVFKVKNTTTLQQHPIDGRDMIIIRMPKDFPPFPQKLKFREPQREERICLVTTNFQTKSMSSMVSDTSCTFPSGDGIFWKHWIQTKDGQCGSPLVSTRDGFIVGIHSASNFTNTNNYFTSVPKNFMELLTNQEAQQWVSGWRLNADSVLWGGHKVFMVKPEEPFQPVKEATQLMNE
# B9: R49V_L76P variant TEV protease (N-terminal His tag; R49V, L56V, L76P, S135G, S219V) (protein)
# chain: GHHHHHHHGESLFKGPRDYNPISSTICHLTNESDGHTTSLYGIGFGPFIITNKHLFVRNNGTLVVQSLHGVFKVKNTTTLQQHPIDGRDMIIIRMPKDFPPFPQKLKFREPQREERICLVTTNFQTKSMSSMVSDTSCTFPSGDGIFWKHWIQTKDGQCGSPLVSTRDGFIVGIHSASNFTNTNNYFTSVPKNFMELLTNQEAQQWVSGWRLNADSVLWGGHKVFMVKPEEPFQPVKEATQLMNE
# Key:
# [1] = molecular target: CBD-TEVrs-bglA (N-terminal His-tagged chitin binding domain, TEVrs ENLYFQG, 6-phospho-β-glucosidase A)
# [2] = molecular target: MBP5-TEV-paramyosin ΔSal (maltose binding protein domain and a paramyosin fragment linked by a TEV protease recognition sequence)
Protein,CBD-TEVrs-bglA cleavage over time at 30° C. [1],CBD-TEVrs-bglA cleavage over time at 30° C. and 20° C. [1],"Slope of ln(1-(cleavage ratio)) against the concentration of TEV protease, 4° C., 18 hours [1]","protease concentration that reaches almost 100% cleavage, 4° C., 18 hours [1]","substrate cleaved, 0° C., 18 hours [1]","substrate cleaved, 4° C., 18 hours [1]",other results
B1,all variants performed better that the control,–,–,–,–,–,–
B2,all variants performed better that the control,–,–,–,–,–,–
B3,all variants performed better that the control,–,–,–,–,–,–
B4,all variants performed better that the control,–,–,–,–,–,–
B5,–,showed slightly weaker activity than control TEV protease,y = -11.281x - 0.2037,–,–,–,Ratio kR49V/kcontrol = (kcat/KM)R49V/(kcat/KM)control [1]: 2
B6,–,–,–,2 µM of the control TEV protease was needed to reach the same mark,the control TEV protease cleaved 64% of the substrate,Control TEV protease cleaved the substrate by 73%; also recorded: the control TEV protease cleaved 77% of the substrate,–
B7,–,"At both temperatures, the L76P variant showed higher activity than control TEV protease",y = -13.611x - 0.0596,–,the L76P variant cleaved 75% of the substrate,the L76P variant cleaved 87% of the substrate,Ratio kL76P/kcontrol = (kcat/KM)L76P/(kcat/KM)control [1]: 1.7
B8,all variants performed better that the control with the R49F_L76P variant (SEQ ID NO: 11) displaying the highest activity,–,y = -13.518x - 0.0413,the R49F_L76P variant reached almost 100% cleavage at 0.5 µM,the R49F_L76P variant cleaved 86% of the substrate,the R49F_L76P variant cleaved 97% of the substrate,"Ratio kR49F-L76P/kcontrol = (kcat/KM)R49F-L76P/(kcat/KM)control [1]: 2.6; cleavage of the substrate, 4° C., 1 hour [2]: The variant protease achieved 85% cleavage in just 1 hour at 4 °C; cleavage of the substrate, 4° C., 3 hours [2]: The variant TEV protease cleaved 98% of the substrate in 3 hours; cleavage of the substrate, 4° C., 5 hours [2]: 99% in 5 hours"
B9,all variants performed better that the control,the R49V_L76P variant showed higher activity than L76P variant,y = -11.117x - 0.0916,the R49V_L76P variant reached almost 100% cleavage at 0.5 µM,–,R49V_L76P variant cleaved the substrate by 94%,Ratio kR49V-L76P/kcontrol = (kcat/KM)R49V-L76P/(kcat/KM)control [1]: 1.5

# — US20260234592
